Test results taken from article PMC3000357 (PLoS Genetics, 2010).

Experiments:
PriA, purified = target: T1, PriA, purified (Bacillus subtilis, UniProt P94461 1-805); experiment: pull-down; streptavidin magnetic beads with a biotinylated 65-mer ssDNA coated by purified SSB or SSBΔ6 (80 pmol of tetramer; SSBΔ35: 100 pmol of tetramer, 60 pmol of tested protein); purified protein added in 20 mM Tris-HCl pH 7.5, 200 mM NaCl, 30 min, 20°C; SDS-PAGE, Coomassie; settings: both partners purified
T1 construct: PriA, primary replication restart protein (DNA helicase) of Bacillus subtilis; source: E. coli, purified (procedure in Text S1)
T1 sequence (looked up): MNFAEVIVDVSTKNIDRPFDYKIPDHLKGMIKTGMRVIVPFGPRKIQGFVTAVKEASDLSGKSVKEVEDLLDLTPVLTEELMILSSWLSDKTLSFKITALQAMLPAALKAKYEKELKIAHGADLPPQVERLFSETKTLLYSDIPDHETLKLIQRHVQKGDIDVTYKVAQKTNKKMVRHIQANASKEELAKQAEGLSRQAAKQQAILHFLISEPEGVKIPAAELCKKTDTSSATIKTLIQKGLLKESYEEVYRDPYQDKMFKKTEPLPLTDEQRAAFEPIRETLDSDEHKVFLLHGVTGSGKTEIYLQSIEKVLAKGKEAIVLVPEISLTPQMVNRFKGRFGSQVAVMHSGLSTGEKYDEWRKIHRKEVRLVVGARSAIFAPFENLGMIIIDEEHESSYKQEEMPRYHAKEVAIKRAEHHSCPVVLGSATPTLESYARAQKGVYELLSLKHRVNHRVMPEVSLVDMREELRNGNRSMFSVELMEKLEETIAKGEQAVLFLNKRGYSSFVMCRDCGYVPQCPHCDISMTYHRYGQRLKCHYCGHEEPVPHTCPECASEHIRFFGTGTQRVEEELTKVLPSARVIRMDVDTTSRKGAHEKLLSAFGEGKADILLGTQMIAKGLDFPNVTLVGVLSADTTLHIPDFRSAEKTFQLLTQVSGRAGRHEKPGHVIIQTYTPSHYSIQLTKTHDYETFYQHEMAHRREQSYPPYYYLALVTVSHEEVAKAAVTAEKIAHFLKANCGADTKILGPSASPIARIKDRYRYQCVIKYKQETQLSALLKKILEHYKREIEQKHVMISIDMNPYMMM

RecG, purified = target: T2, RecG, purified (Bacillus subtilis, UniProt O34942 1-682); experiment: as above; settings: both partners purified
T2 construct: RecG DNA helicase of Bacillus subtilis; source: E. coli, purified (procedure in Text S1)
T2 sequence (looked up): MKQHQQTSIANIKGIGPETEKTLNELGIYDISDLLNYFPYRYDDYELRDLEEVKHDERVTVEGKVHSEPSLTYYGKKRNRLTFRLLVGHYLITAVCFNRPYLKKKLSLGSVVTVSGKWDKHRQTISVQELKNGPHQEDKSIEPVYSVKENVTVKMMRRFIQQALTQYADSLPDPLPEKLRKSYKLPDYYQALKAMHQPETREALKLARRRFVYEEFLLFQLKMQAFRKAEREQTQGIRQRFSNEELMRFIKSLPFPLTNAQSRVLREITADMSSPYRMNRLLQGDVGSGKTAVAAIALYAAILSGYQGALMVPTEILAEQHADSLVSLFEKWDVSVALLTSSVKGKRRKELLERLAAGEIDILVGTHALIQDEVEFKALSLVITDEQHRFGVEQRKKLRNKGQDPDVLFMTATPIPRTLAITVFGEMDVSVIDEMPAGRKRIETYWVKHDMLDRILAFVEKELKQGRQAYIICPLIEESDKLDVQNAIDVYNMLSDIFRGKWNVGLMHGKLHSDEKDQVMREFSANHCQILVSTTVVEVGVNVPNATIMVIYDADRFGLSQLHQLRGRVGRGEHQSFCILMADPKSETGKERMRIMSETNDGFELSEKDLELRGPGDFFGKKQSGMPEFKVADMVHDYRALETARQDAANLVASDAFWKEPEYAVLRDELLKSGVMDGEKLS

RecQ, purified = target: T3, RecQ, purified (Bacillus subtilis, UniProt O34748 1-591); experiment: as above; settings: both partners purified
T3 construct: RecQ DNA helicase (initially annotated YocI) of Bacillus subtilis; also called YocI; source: E. coli, purified (procedure in Text S1)
T3 sequence (looked up): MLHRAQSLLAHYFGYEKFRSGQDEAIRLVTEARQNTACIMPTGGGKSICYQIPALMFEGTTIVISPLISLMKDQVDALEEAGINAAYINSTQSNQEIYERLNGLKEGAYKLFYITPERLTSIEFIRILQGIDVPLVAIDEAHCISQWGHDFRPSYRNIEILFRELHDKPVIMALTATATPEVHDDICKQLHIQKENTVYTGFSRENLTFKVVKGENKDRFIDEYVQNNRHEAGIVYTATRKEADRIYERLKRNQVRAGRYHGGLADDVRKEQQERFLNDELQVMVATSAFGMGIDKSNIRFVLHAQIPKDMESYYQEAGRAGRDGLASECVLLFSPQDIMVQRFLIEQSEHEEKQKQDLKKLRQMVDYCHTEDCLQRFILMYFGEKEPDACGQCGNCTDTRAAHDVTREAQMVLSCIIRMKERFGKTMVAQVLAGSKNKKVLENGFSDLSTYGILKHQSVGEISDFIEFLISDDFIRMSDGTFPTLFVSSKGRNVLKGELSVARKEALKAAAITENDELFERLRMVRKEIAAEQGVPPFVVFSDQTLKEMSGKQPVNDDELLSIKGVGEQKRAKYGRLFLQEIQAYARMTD

RecO, purified = target: T4, RecO, purified (Bacillus subtilis, UniProt P42095 1-255); experiment: as above; settings: both partners purified
T4 construct: RecO recombination mediator protein of Bacillus subtilis; source: E. coli, purified (procedure in Text S1)
T4 sequence (looked up): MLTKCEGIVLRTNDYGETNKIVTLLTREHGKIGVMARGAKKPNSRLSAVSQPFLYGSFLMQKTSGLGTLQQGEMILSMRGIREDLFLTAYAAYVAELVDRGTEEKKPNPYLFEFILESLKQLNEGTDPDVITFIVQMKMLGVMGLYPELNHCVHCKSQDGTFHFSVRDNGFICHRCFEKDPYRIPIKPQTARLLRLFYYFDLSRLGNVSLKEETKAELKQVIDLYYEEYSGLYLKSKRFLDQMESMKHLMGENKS

[1] = target: T5, YpbB/RecS complex, purified (Bacillus subtilis, UniProt P50728 1-352; P50729 1-496); experiment: SEC; purified RecS (4 µM) or YpbB/RecS (4 µM) mixed on ice with SSB (16 µM or 40 µM, as monomers) and loaded onto a gel-filtration column; fractions on SDS-PAGE, Coomassie; settings: both partners purified
T5 construct: YpbB of Bacillus subtilis; RecS (YpbC) of Bacillus subtilis; Equivalent amounts of YpbB and RecS appear to be present in the complex
T5 sequence (looked up) 1: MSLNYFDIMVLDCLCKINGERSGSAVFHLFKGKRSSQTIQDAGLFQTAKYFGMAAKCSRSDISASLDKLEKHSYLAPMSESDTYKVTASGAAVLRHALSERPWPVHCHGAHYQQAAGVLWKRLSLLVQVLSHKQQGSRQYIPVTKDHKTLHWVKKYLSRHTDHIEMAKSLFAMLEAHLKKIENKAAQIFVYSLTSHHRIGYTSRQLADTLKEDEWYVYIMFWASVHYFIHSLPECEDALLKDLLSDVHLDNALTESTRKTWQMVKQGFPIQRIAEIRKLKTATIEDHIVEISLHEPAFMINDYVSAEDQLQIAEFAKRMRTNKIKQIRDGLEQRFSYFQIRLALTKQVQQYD
T5 sequence (looked up) 2: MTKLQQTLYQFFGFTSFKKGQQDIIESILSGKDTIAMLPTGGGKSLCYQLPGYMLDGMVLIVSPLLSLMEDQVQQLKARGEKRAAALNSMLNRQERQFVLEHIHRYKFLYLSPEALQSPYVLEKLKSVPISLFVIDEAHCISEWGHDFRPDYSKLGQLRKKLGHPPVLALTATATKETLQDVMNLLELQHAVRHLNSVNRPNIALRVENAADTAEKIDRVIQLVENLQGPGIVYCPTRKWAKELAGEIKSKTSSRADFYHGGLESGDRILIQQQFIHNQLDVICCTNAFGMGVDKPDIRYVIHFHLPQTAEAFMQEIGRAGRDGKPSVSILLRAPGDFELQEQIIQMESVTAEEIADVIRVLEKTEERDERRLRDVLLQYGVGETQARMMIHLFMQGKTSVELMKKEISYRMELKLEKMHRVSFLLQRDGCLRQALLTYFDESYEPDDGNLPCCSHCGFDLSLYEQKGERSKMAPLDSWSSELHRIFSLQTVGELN

RecS, purified = target: T6, RecS, purified (Bacillus subtilis, UniProt P50729 1-496); experiment: as above; settings: both partners purified
T6 construct: RecS (also annotated YpbC), RecQ paralogue of Bacillus subtilis; theoretical mass 57 kDa; also called YpbC; source: E. coli, purified (procedure in Text S1)
T6 sequence (looked up): T5 sequence (looked up) 2

SSBΔ35 = target: T7, SSBΔ35 (Bacillus subtilis, UniProt P37455 1-137); experiment: pull-down on ssDNA magnetic beads; 20 mM Tris-HCl pH 7.5, 200 mM NaCl, 20 °C, 800 rpm; beads washed in same buffer; settings: protein: recombinant; chain copies: 4; label: 5' biotin, on streptavidin magnetic beads; single strand
T7 sequence: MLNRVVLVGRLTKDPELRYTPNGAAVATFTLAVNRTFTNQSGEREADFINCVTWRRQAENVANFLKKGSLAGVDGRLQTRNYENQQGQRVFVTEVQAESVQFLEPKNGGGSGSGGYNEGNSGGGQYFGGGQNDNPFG

SSBΔ6 = target: T8, SSBΔ6 (Bacillus subtilis, UniProt P37455 1-166); experiment: pull-down on ssDNA magnetic beads; 50 pmol oligo, 80 pmol SSBΔ6; 20 mM Tris-HCl pH 7.5, 200 mM NaCl, 20 °C, 800 rpm; beads washed in same buffer; settings: protein: recombinant; chain copies: 4; label: 5' biotin, on streptavidin magnetic beads; single strand
T8 sequence: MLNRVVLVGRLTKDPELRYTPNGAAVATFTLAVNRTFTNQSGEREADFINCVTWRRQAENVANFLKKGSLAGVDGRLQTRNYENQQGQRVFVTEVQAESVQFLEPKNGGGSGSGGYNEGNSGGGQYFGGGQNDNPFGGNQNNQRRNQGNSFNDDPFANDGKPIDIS

SSB = target: T9, SSB (Bacillus subtilis, UniProt P37455 1-172); experiment: pull-down on ssDNA magnetic beads; 50 pmol oligo, 80 pmol SSB; 20 mM Tris-HCl pH 7.5, 200 mM NaCl, 20 °C, 800 rpm; beads washed in same buffer; settings: protein: recombinant; chain copies: 4; label: 5' biotin, on streptavidin magnetic beads; single strand
T9 sequence: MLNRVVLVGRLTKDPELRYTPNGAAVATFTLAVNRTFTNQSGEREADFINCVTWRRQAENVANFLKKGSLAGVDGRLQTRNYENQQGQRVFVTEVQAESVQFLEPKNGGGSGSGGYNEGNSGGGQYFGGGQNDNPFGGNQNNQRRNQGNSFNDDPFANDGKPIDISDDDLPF

Measured: binding result

B1: Bacillus subtilis Single-Stranded DNA Binding protein (SSB), purified (natural protein, UniProt P37455 1-172, looked up)
chain: T9 sequence
notes: Used as a tetramer; source: E. coli, purified (procedure in Text S1)
binds: PriA, purified | RecG, purified | RecQ, purified | RecO, purified | [1]

B2: YpbB, produced in E. coli with RecS (natural protein, Bacillus subtilis, UniProt P50728 1-352, looked up)
chain: T5 sequence (looked up) 1
notes: YpbB, protein of unknown function of Bacillus subtilis, encoded immediately upstream of recS; Could not be prepared as a soluble protein alone; source: E. coli, purified only as a complex with RecS (procedure in Text S1)
binds: RecS, purified

B3: 65-mer biotinylated ssDNA oligonucleotide (ssDNA)
DNA: CGTCGTTTTACAACGTCGTGACTGGGAAAACCCTGGCGTTACCCAACTTAATCGCCTTGCAGCA
modifications: biotin-TEG
binds: SSBΔ35 | SSBΔ6 | SSB
